This is an account of results in US5840283A, “Composition and method for treating diseased nails” (Sorenson Pharmaceutical, Inc., priority 1997, dated 1998).

Data set [1] is classed as in vitro ADME, human. The procedure: The efficacy of the nail-permeable medication means of the present invention was first evaluated by conducting comparative studies comprising application of a selected drug applied to a human nail in vitro as compared to the application of the nail-permeable medication means containing the same drug applied to a human nail in vitro. Specifically, these tests were conducted using diseased human toenails which were surgically removed from patients as a means of curing the disease condition of the nail.
Each nail was maintained in an environment simulating an in vivo condition. Each nail was maintained suspended on a plastic holder which allowed air to circulate about the nail. Each nail holder was retained in a separate enclosed system the temperature and humidity within which could be carefully regulated to simulate the human body. These artificial in vivo environments provided the diffusion cells in which the studies were conducted.
Human nails were prepared by cleaning and, in some instances, grinding the nail down to establish a more even thickness across the nail. The nails were then hydrated using distilled water to render the nails pliable for placement in the diffusion cell. […] A Teflon® donor compartment 16 was positioned over the nail 12 and the nail saddle 14 was joined to the donor compartment 16 by placement of a silicone sealant about the edges of the nail 12 and donor compartment 16. After the silicone cured, water leakage was tested and the nails were resealed if necessary. […] Attempts were made to use an appropriate size "O" ring 18 to form the seal between the nail saddle 14 and the donor compartment 16.
The cell 10 was used by adding solvent, usually de-ionized water, until the solvent came into contact with the nail. […] When semi-solid treatment formulations were used, excess product was removed from the nail by cleansing with cotton swabs after twenty-four hours and prior to application of another nail treatment or pre-treatment product. Pretreatment products (e.g., hydrating fluid, etc.) and treatment products (i.e., nail-permeable medication means) were changed or supplemented daily throughout the experimental period.
After addition of the pretreatment or treatment product, the opening of the donor cell 10 was occluded with silicone cement/sealant. The possibility of entrapped air at the interface of the receiver solvent and nail was checked daily, as well as at the beginning of the experiment. To control this problem, care was taken to be certain that no bubbles were present at the time solvents were added and the nail placed in the saddle. Bubbles may not be visible after the apparatus is fully assembled. Also, dissolved gases tend to separate into bubbles and rise to the nail/receiver interface during the process.
Ciclopirox olamine (6-Cyclohexyl 1-hydroxy 4-methyl 2(1H)-pyridone, 2-aminoethanol salt [Bertrafen]), an antimycotic drug, was used in the nail-permeable medication means of the invention for the purposes of testing and analysis. Three analytical methods are identified in the literature which appear to be acceptable means of determining drug diffusion rates. One method requires the use of radio-labeled drug, and another method utilizes LC (liquid chromatography) equipment. The third method, described by Belliardo, et al., in "Micro-liquid chromatography method for the determination of ciclopirox olamine after pre-column derivatization in topical formulations" Jr. Chromatography, Vol. 553 (1991), p. 41-5, was the method used here. However, because of lack of access to a micro-LC system, lesser concentrations of ciclopirox olamine (<1-2 μg/ml of diffusion fluid) were unquantifiable. Lesser concentrations were sometimes seen as small irregularities on the HPLC (high-pressure liquid chromatography) tracing, but the identity was not confirmed by computer. […]

The nature of data set [2]: pilot clinical study in patients with subungual onychomycosis. Format: in vivo, human. As to conditions: arm 3; patient's assessment of clinical results 1-5, 5 positive.
Description: Patients enrolled in the study were diagnosed with subungual onychomycosis from a positive culture of a target nail. The target nail was that nail most severely involved with symptoms of onychomycosis. […] Patients with a history of non-response to standard antimycotic treatments, or severe abnormalities or deformities of the assessed fingers or toes, were excluded.
The protocol called for an eleven month treatment period.
Patients visited their physicians on a monthly basis for evaluation. Clinical measurements and mycological cultures were taken on alternating visits. Adverse events were defined as any abnormal inflammation of the tissues surrounding the nail from the patient's pretreatment condition and were checked by their physician or reported as they occurred. Patient evaluations of clinical treatment were obtained by a survey of patients. Ease of application, convenience of application, and patient's assessments of the clinical results were rated by patients on a scale of 1 to 5 with 1 indicating visible effect and 5 being positive. In addition, patients were also asked to respond to treatment compliance by reporting the number of days per week which they applied their medication as prescribed.
Therefore, patients treated in arm 3 (antifungal only) of the study were used as the baseline upon which clinical and mycologic results were measured.
The next data set concerns T. rubrum. The note with it: cited from earlier work.
Data set [3] can be described thus: duration of papain activity after mixture with water. Format: physicochemical. The note with it: certain activators present. The source says: The nail-permeable medication means also includes a medicament which is especially selected for treatment of a particular disease condition. The concentration of medicament in the nail-permeable means is sufficient to effectively control or eliminate the disease condition. […] It is notable in that respect that many medications have a water base, or have a water component in addition to certain activators (e.g. thiols and mercaptans which include cysteine and a chelating agent, such as EDTA [ethylenediaminetetraacetic acid]) which, when admixed with the enzymatic composition, may begin to degrade the enzyme and/or reduce its effectiveness. However, admixture of a water-based or water-containing medicament with a proteolytic enzyme will typically degrade the enzymatic component slowly enough that significant penetration of the nail still takes place and the medicament is successfully delivered to the disease site. Generally, papain and other proteolytic enzymes are effective for approximately twenty-four hours after mixture with water where certain activators are present. In the absence of such activators, papain may remain active for up to two years.

For data set [4] the following is noted: cited from earlier work.
The test system of a further data set is casein substrate. As to conditions: cited from earlier work.

Structures can show the parent of a compound that is named as a salt. Where two headings read alike, the source gives them in different places.

As to `Cc1cc(C2CCCCC2)n(O)c(=O)c1` [ciclopirox olamine, 6-Cyclohexyl 1-hydroxy 4-methyl 2(1H)-pyridone, 2-aminoethanol salt], in data set [1], the “amount of drug diffused compared with soaked nails” value is on record as “less than when the nails were soaked with the papain-plus-activators”; the “diffusion of drug through the nail, control without proteolytic enzyme component” value is on record as “no diffusion of drug through the nail”; the “drug diffusion for the seven-day period” value lay within 2 to 6 µg/mL; the “effect of increasing papain concentration on amount of drug diffused” value is listed as “did not increase the amount of drug diffused”. For the same molecule, the “effect of soaking time on amount of drug diffused” value in data set [1] is recorded as “the amount of drug that diffused through the treated nails also increased”. The “ANALYSES (ciclopirox diffused through nail)” value in data set [1] (pH 10) was found to be 0 µg/mL. The “Results (1-5)” value in data set [2] was found to be 1. The “minimum inhibitory concentration (MIC)” value in the data set on T. rubrum is 10 µg/mL.

B1: papain: proteolytic enzyme (protein, UniProt P00784 134-345, looked up)
Papain: IPEYVDWRQKGAVTPVKNQGSCGSCWAFSAVVTIEGIIKIRTGNLNEYSEQELLDCDRRSYGCNGGYPWSALQLVAQYGIHYRNTYPYEGVQRYCRSREKGPYAAKTDGVRQVQPYNEGALLYSIANQPVSVVLEAAGKDFQLYRGGIFVGPCGNKVDHAVAAVGYGPNYILIKNSWGTGWGENGYIRIKRGTGNSYGVCGLYTSSFYPVKN
With B1, the “diffusion results by papain concentration” value in data set [1] is reported as “optimal diffusion results”. Further, the “duration of effectiveness after mixture with water” value in data set [3] is “approximately twenty-four”.

B2: Sigma papain, product no. P4762: Sigma Co., product no. P4762, 2× crystallized, lyophilized powder (protein, UniProt P00784 134-345, looked up)
Papain: IPEYVDWRQKGAVTPVKNQGSCGSCWAFSAVVTIEGIIKIRTGNLNEYSEQELLDCDRRSYGCNGGYPWSALQLVAQYGIHYRNTYPYEGVQRYCRSREKGPYAAKTDGVRQVQPYNEGALLYSIANQPVSVVLEAAGKDFQLYRGGIFVGPCGNKVDHAVAAVGYGPNYILIKNSWGTGWGENGYIRIKRGTGNSYGVCGLYTSSFYPVKN
modifications: lyophilized powder
notes: Sigma Co., product no; P4762, 2× crystallized, lyophilized powder
As to B2, the papain activity in data set [4] (Sigma product no. P4762, 2× crystallized, lyophilized powder) was 16-20 BAEE units/mg.

B3: ICN papain 2× crystallized suspension: ICN Company papain, 2× crystallized suspension form (protein, UniProt P00784 134-345, looked up)
Papain: IPEYVDWRQKGAVTPVKNQGSCGSCWAFSAVVTIEGIIKIRTGNLNEYSEQELLDCDRRSYGCNGGYPWSALQLVAQYGIHYRNTYPYEGVQRYCRSREKGPYAAKTDGVRQVQPYNEGALLYSIANQPVSVVLEAAGKDFQLYRGGIFVGPCGNKVDHAVAAVGYGPNYILIKNSWGTGWGENGYIRIKRGTGNSYGVCGLYTSSFYPVKN
modifications: crystallized suspension
notes: ICN Company papain, 2× crystallized suspension form
As for B3, in data set [4] (ICN papain forms), the papain activity is on record as 15-40 BAEE Units of activity.

B4: Sigma papain: papain product of Sigma, approximately eighty percent protein (protein, UniProt P00784 134-345, looked up)
Papain: IPEYVDWRQKGAVTPVKNQGSCGSCWAFSAVVTIEGIIKIRTGNLNEYSEQELLDCDRRSYGCNGGYPWSALQLVAQYGIHYRNTYPYEGVQRYCRSREKGPYAAKTDGVRQVQPYNEGALLYSIANQPVSVVLEAAGKDFQLYRGGIFVGPCGNKVDHAVAAVGYGPNYILIKNSWGTGWGENGYIRIKRGTGNSYGVCGLYTSSFYPVKN
modifications: commercial preparation
notes: papain product of Sigma, approximately eighty percent protein
Turning to B4, the papain activity in data set [4] (25° C., pH 6.2, Sigma papain product) is reported as 10-20 BAEE Units per milligram of enzyme-containing material.

B5: Marcor papain: Marcor Company (Hackensack, N.J.) papain (protein, UniProt P00784 134-345, looked up)
Papain: IPEYVDWRQKGAVTPVKNQGSCGSCWAFSAVVTIEGIIKIRTGNLNEYSEQELLDCDRRSYGCNGGYPWSALQLVAQYGIHYRNTYPYEGVQRYCRSREKGPYAAKTDGVRQVQPYNEGALLYSIANQPVSVVLEAAGKDFQLYRGGIFVGPCGNKVDHAVAAVGYGPNYILIKNSWGTGWGENGYIRIKRGTGNSYGVCGLYTSSFYPVKN
modifications: commercial Marcor preparation
For the molecule B5, the papain activity with casein substrate (Marcor papain, footnote of EXAMPLE I) is 30,000 USP Units/m activity; in the data set on casein substrate (Marcor papain), 30,000 USP units/mg.

B6: USP papain: papain of United States Pharmacopeia standard (protein, UniProt P00784 134-345, looked up)
Papain: IPEYVDWRQKGAVTPVKNQGSCGSCWAFSAVVTIEGIIKIRTGNLNEYSEQELLDCDRRSYGCNGGYPWSALQLVAQYGIHYRNTYPYEGVQRYCRSREKGPYAAKTDGVRQVQPYNEGALLYSIANQPVSVVLEAAGKDFQLYRGGIFVGPCGNKVDHAVAAVGYGPNYILIKNSWGTGWGENGYIRIKRGTGNSYGVCGLYTSSFYPVKN
modifications: USP standard
In the case of B6, in the data set on casein substrate (USP papain), the papain activity entry is “at least 6,000 USP units per mg”.

B7: ICN papain 2× crystallized powder: ICN Company papain, 2× crystallized powder (protein, UniProt P00784 134-345, looked up)
Papain: IPEYVDWRQKGAVTPVKNQGSCGSCWAFSAVVTIEGIIKIRTGNLNEYSEQELLDCDRRSYGCNGGYPWSALQLVAQYGIHYRNTYPYEGVQRYCRSREKGPYAAKTDGVRQVQPYNEGALLYSIANQPVSVVLEAAGKDFQLYRGGIFVGPCGNKVDHAVAAVGYGPNYILIKNSWGTGWGENGYIRIKRGTGNSYGVCGLYTSSFYPVKN
modifications: crystallized powder
notes: ICN Company papain, 2× crystallized powder
On to B7, for which the papain activity in data set [4] (ICN papain forms) is 10-20 BAEE Units of activity.
